We go through one molecule from article PMC509409, “Recognition and Accommodation at the Androgen Receptor Coactivator Binding Interface” (PLoS Biology, 2004).

Assay in all cases: SPR; Biacore 2000; biotinylated peptides (about 250 RU) held on streptavidin cells, AR LBD injected at 10 μM, 5 μM, 1 μM and 300 nM, 10 μl/min; HBS-P (10 mM HEPES pH 7.4, 150 mM NaCl, 0.005% Surfactant P20); SMRT2 peptide cell subtracted as background; two-state conformational change model, Kd calculated from rate constants
Conditions in all cases: both partners purified

For assay [1], the target named is T1, biotinylated LxxLL peptide (biotin tag attached through the additional C-terminal SGSGK).
T1 construct: also in PDB 1T7F; The SGSGK-biotin form is told for the FRET assay; source: synthetic peptide (Anaspec)

Assay [2] concerns the target T2, biotinylated FxxLF peptide (biotin tag attached through the additional C-terminal SGSGK).
T2 construct: also in PDB 1T7R; The SGSGK-biotin form is told for the FRET assay; source: synthetic peptide (Anaspec)

The target of assay [3] is T3, biotinylated FxxLW peptide (biotin tag attached through the additional C-terminal SGSGK).
T3 construct: also in PDB 1T79; The SGSGK-biotin form is told for the FRET assay; source: synthetic peptide (Anaspec)

B1: androgen receptor ligand-binding domain (AR LBD), DHT-bound (domain or fragment)
chain: GSPGISGGGGGSHIEGYECQPIFLNVLEAIEPGVVCAGHDNNQPDSFAALLSSLNELGERQLVHVVKWAKALPGFRNLHVDDQMAVIQYSWMGLMVFAMGWRSFTNVNSRMLYFAPDLVFNEYRMHKSRMYSQCVRMRHLSQEFGWLQITPQEFLCMKALLLFSIIPVDGLKNQKFFDELRMNYIKELDRIIACKRKNPTSCSRRFYQLTKLLDSVQPIARELHQFTFDLLIKSHMVSVDFPEMMAEIISVQVPKILSGKVKPIYFHTQ
What is called Kd is the free concentration of one partner at which half of the binding sites on the other are occupied at equilibrium, for simple one-to-one binding. Regarding B1, the equilibrium dissociation constant (Kd) was 1.8 µM in assay [1], 1.1 µM in assay [2] and 0.92 µM in assay [3].
